# Values of other authors in PMC7154116.
# pKd: −log10 of the molar value.
# Biological target: NTSR3/sortilin (UniProt Q99523)
# Sequence of UniProt Q99523 (Q99523 78-755): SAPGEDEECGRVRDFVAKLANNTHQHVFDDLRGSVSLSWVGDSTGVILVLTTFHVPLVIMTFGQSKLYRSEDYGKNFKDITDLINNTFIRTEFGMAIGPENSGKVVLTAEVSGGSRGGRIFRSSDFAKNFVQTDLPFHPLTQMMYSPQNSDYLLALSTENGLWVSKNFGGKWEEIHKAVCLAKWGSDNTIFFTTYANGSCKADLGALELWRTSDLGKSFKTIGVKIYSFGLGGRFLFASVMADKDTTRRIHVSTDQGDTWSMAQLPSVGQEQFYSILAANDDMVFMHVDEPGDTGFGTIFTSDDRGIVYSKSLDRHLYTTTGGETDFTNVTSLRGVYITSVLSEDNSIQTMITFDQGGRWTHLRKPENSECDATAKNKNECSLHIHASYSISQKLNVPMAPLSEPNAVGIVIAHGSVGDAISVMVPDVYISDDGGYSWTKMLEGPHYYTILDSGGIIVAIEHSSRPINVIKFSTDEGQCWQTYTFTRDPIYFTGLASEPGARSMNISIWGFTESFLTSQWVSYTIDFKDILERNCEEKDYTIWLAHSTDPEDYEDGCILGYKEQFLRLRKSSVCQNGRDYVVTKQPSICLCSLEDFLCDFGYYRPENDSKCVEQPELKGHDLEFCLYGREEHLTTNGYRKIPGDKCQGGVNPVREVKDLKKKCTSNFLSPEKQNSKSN
substance,measurement,value
Spadin propeptide fragment (from UniProt Q99523),pKd,8.10
